Experimental data: patent publication US10119980B2, “Method for detection of basic peptide and reagent for detection of basic peptide” (SYSMEX CORPORATION, priority 2009, dated 2018)

Assays:
[1] = biological target: T1, partial ACTH peptide (positions 1 to 24 of ACTH) (Homo sapiens, UniProt P01189); assay: Turbidity (OD550) measurement and Hill plot analysis of albumin reagents mixed with partial ACTH peptide; type: binding
T1 construct: consisting of the amino acids of positions 1 to 24 of ACTH
Description: BSA (Sigma-Aldrich) was dissolved in Milli-Q® water (Millipore) to prepare a BSA solution (1.0 w/v %). The BSA solution was divided into two and one was designated as a non-denatured BSA solution and the other was autoclaved at 110° C. for 15 minutes to obtain a heat-denatured BSA solution.
A partial ACTH peptide (Peptide Institute, Inc.) consisting of the amino acids of positions 1 to 24 of ACTH was used as the basic peptide of interest. The peptide was dissolved in ultrapure water to prepare a sample containing the basic peptide of interest (1.0 mg/ml).
The heat-denatured BSA solution prepared in the above (1) (50 μl) was mixed with the sample prepared in (2) followed by addition of ultrapure water to prepare a total volume of 250 μl of a mixed solution (final concentration of heat-denatured BSA: 0.2 w/v %). In this preparation, the sample was mixed so as to obtain a final concentration of the partial ACTH peptide in the mixed solution of 0 to 150 μM. A comparative mixed solution was also prepared in the similar manner except that the non-denatured BSA solution was used instead of the heat-denatured BSA solution.
The thus-prepared mixed solutions were measured for absorbance at the wavelength of 550 nm (OD550) in a spectrophotometer UV-2500PC (Shimadzu Corporation). The obtained results were subjected to Hill plot analysis with KaleidaGraph (HULINKS, Inc.) to calculate the values of Kd and the Hill coefficient of heat-denatured BSA and non-denatured BSA.
BSA (Sigma-Aldrich) was dissolved in Milli-Q® water (Millipore) to prepare a BSA solution (1.0 w/v %). The BSA solution was divided into five aliquots among which one was designated as a non-denatured BSA solution (heat denaturation period: 0 min) and the rest of four were heated in an autoclave at 110° C. for 5, 15, 60 and 120 min, respectively, to obtain heat-denatured BSA solutions.
The Kd value and Hill coefficient of BSA at respective heat denaturation periods were calculated. […]
The Kd value and Hill coefficient were calculated for the mixed solutions. […]

[2] = biological target: T2, partial ACTH peptide (Homo sapiens, UniProt P01189); assay: OD550 detection of basic peptide concentrated by OFFGEL fractionation from serum-containing specimen; conditions: Heat-denatured BSA: Yes; concentrated partial ACTH peptide fraction after OFFGEL fractionation, MES-HCl buffer pH 5.0
T2 construct: consisting of amino acids of positions 1 to 24 of ACTH; purchased Biologica Co
Description: A partial ACTH peptide consisting of amino acids of positions 1 to 24 of ACTH (Biologica Co.) was used as the basic peptide of interest. The peptide was dissolved in ultrapure water and mixed with serum of a healthy USA subject (SUNFCO) to prepare an actual serum sample containing the basic peptide of interest. The sample was prepared so as to obtain the concentrations of the partial ACTH peptide and serum as shown in (3) below.
(3) Preparation of sample solution containing concentrated basic peptide of interest. A glycerol solution (Agilent technologies; 6 ml) and an OFFGEL Buffer solution (Agilent technologies; 600 μl) were mixed followed by addition of ultrapure water to prepare a total volume of 50 ml of peptide buffer solution (×1.25), the pH of which is 3-10. This solution was mixed with the sample of the above (2) to prepare a peptide buffer solution (×1) with the concentration of 20 μM of the partial ACTH peptide and the concentration equivalent to 1000-fold dilution of serum. This solution was fractionated with using a High Resolution IPG gel for fraction whose pH is pH 3-10 on the OFFGEL fractionator (Agilent Technologies). […]
The thus-prepared mixed solutions were measured for absorbance at the wavelength of 550 nm (OD550) in a spectrophotometer UV-2500PC (Shimadzu Corporation).

[3] = biological target: T2, partial ACTH peptide; assay: Detection capacity (turbidity, OD550) at various final concentrations of reagent for detection; parameters: key: “Y” denotes turbidity appearing; “N” does the absence of turbidity
Description: BSA (Sigma-Aldrich) was dissolved in ultrapure water to prepare a BSA solution (5.0 w/v %). The BSA solution was heated in an autoclave at 115° C. for 15 minutes to obtain a heat-denatured BSA solution.
A partial ACTH peptide consisting of amino acids of positions 1 to 24 of ACTH (Biologica Co.) was used as the basic peptide of interest. The peptide was dissolved in ultrapure water to prepare a sample containing the basic peptide of interest (1.0 mg/ml).
The heat-denatured BSA solution prepared in (1) was mixed with 30 μl or 60 μl of the sample prepared in (2) followed by addition of ultrapure water to prepare a total volume of 250 μl of mixed solutions. In the preparation, the reagent for detection (solution of heat-denatured BSA) was mixed with the respective samples so as to obtain a final concentration of the reagent for detection in the mixed solution of 0.1 to 5%.
The thus-prepared mixed solutions were measured for values of absorbance at the wavelength of 550 nm (OD550) with a spectrophotometer UV-2500PC (Shimadzu Corporation). The results obtained are summarized in Table 6, where “Y” denotes turbidity appearing and “N” does the absence of turbidity.

[4] = biological target: T2, partial ACTH peptide; assay: OD550 Hill plot analysis in serum-based solution versus control solution; type: binding
Description: The peptide was dissolved in ultrapure water and mixed with serum collected from a healthy volunteer in USA (person) (SUNFCO) to prepare the serum-based sample containing the basic peptide of interest. The serum-based samples were prepared so as to adjust the final concentrations of the partial ACTH peptide and serum as shown in (3) below.
The denatured BSA solution prepared in the above (1) (50 μl) was mixed with the sample prepared in (2) followed by addition of ultrapure water to prepare a total volume of 250 μl of mixed solution containing serum (hereinafter referred to as “serum-based solution”). In the preparation, the serum-based sample was mixed so as to adjust a final concentration of the partial ACTH peptide of to 0 to 80 μM and adjust a final concentration of serum of to an equivalent to 100-fold dilution in the mixed solution. For a control, a mixed solution was also prepared without serum (hereinafter referred to as “control solution”).
The thus-prepared mixed solutions were measured for absorbance at the wavelength of 550 nm (OD550) with a spectrophotometer UV-2500PC (Shimadzu Corporation).
OD=(peptide concentration)^n/[(peptide concentration)^n+[Kd×(1+CHSA/Ki)]^n]

[5] = Example 1, final BSA 0.2 w/v %, peptide 0 to 150 μM, OD550 Hill plot
[6] = Nucleic acid: Yes (salmon sperm DNA, final 10 μM)
[7] = heat denaturation period 5 min at 110° C.
[8] = heat denaturation period 15 min at 110° C.
[9] = heat denaturation period 60 min at 110° C.
[10] = heat denaturation period 120 min at 110° C.
[11] = Control solution (without serum)
[12] = Serum solution (serum equivalent to 100-fold dilution)

T1 sequence (P01189 138-161): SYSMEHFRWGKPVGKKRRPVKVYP

Hill coefficient n [1, 5]: 8
Kd [1, 5]: 30 µM
Hill coefficient n ([1]; Nucleic acid: No): 11
Kd ([1]; Nucleic acid: No): 40 µM
Hill coefficient n [1, 6]: 8
Kd [1, 6]: 30 µM
Hill coefficient n [1, 7]: 5
Kd [1, 7]: 33 µM
Hill coefficient n [1, 8]: 8
Kd [1, 8]: 30 µM
Hill coefficient n [1, 9]: 6
Kd [1, 9]: 28 µM
Hill coefficient n [1, 10]: 4
Kd [1, 10]: 33 µM
OD550 [2]: 0.03
Detection capacity (in the case of 30 μM peptide) ([3]; final conc. of reagent 0.1 %): Y
Detection capacity (in the case of 60 μM peptide) ([3]; final conc. of reagent 0.1 %): Y
Detection capacity (in the case of 30 μM peptide) ([3]; final conc. of reagent 0.2 %): Y
Detection capacity (in the case of 60 μM peptide) ([3]; final conc. of reagent 0.2 %): Y
Detection capacity (in the case of 30 μM peptide) ([3]; final conc. of reagent 0.4 %): Y
Detection capacity (in the case of 60 μM peptide) ([3]; final conc. of reagent 0.4 %): Y
Detection capacity (in the case of 30 μM peptide) ([3]; final conc. of reagent 0.5 %): Y
Detection capacity (in the case of 60 μM peptide) ([3]; final conc. of reagent 0.5 %): Y
Detection capacity (in the case of 30 μM peptide) ([3]; final conc. of reagent 0.7 %): Y
Detection capacity (in the case of 60 μM peptide) ([3]; final conc. of reagent 0.7 %): Y
Detection capacity (in the case of 30 μM peptide) ([3]; final conc. of reagent 1.0 %): Y
Detection capacity (in the case of 60 μM peptide) ([3]; final conc. of reagent 1.0 %): Y
Detection capacity (in the case of 30 μM peptide) ([3]; final conc. of reagent 5.0 %): Y
Detection capacity (in the case of 60 μM peptide) ([3]; final conc. of reagent 5.0 %): Y
Hill coefficient n [4, 11]: 4
Kd [4, 11]: 25 µM
Hill coefficient n [4, 12]: 3.4
Kd [4, 12]: 29 µM
Substance: Heat-denatured BSA: BSA solution (1.0 w/v %) in Milli-Q water autoclaved at 110° C. for 15 minutes; reagent for detection
change in OD550 with increasing partial ACTH peptide concentration ([1]; albumin reagent mixed with partial ACTH peptide): increased in a concentration dependent manner
